# Substitutions are numbered along the chain they refer to.
# B1: AB14 (antibody, V domains shown)
# VH: EVQLVESGGGLVQPKGSLKLSCAASGFTFNTYAMNWVRQAPGKGLEWVARIRSKSNNYATYYVDSVKDRFTISRDDSQSMLYLQINNLKTEDTAMYYCVRGRELGPYSAMDYWGQGTSVTVSS
# VL: DIVMTQAAPSVPVTPGESVSISCRSSKSLLHSNGNTYLYWFLQRPGQSPQLLIYRMSNLASGVPDRFSGSGSGTAFTLRISRVEAEDVGLYYCMQHLEYPFTFGGGTKLEIK
# notes: Hybridoma monoclonal; also called antibody 14; clone 14
# B2: AB10 (antibody, V domains shown)
# VH: EVQLVETGGGLVQPKGSLKLSCAVSGFTFKTNAMNWVRQAPGKGLEWVARIRSKSNKYATYYADSVKDRFTISRDDSQSMLYLQMNNLKTEDTAMYYCVRGSEMGYYYAMDYWGQGTSVTVSS
# VL: B1 VL with L90V
# notes: Hybridoma monoclonal; also called antibody 10; clone 10
# B3: AB12 (antibody, V domains shown)
# VH: B1 VH with T28A, V48I, I51L, N57F, V63A, I85M, M95V, Y107S, S108Y
# VL: B1 VL with L90V, F101Y
# notes: Hybridoma monoclonal; also called antibody 12; clone 12
# B4: AB1 (antibody, V domains shown)
# VH: QVQLKESGPGLVKPSETLSLTCTVSGFSLTSYHISWVRQPPGKGLEWMGVIWGDGSKTYNSALKSRLSISRDTSKSQVFLKMRSLKTEDTATYYCARGGDSGFAYWGQGTLVTVSS
# VL: DIQMTQSPASLSASLEEIVTITCQASQDIGNWLSWYQQKPGKSPQLLIYGTTNLADGVPSRFSGSRSGTQYSLKISRLQVEDIGIYYCLQAYSVPLTFGSGTKLEIK
# notes: Hybridoma monoclonal (mice or rats immunised); Used purified and PE-conjugated; also called antibody 1; clone 1
# B5: AB3 (antibody, V domains shown)
# VH: B4 VH with S56K, K57T, R83N
# VL: B4 VL
# notes: Hybridoma monoclonal; also called antibody 3; clone 3
# B6: AB4 (antibody, V domains shown)
# VH: B4 VH with S31G, I34V, S56R, K57T, R83S
# VL: B4 VL with T51A, N53S, Y71F, S93I, I106S
# notes: Hybridoma monoclonal; also called antibody 4; clone 4
# B7: AB2 (antibody, V domains shown)
# VH: B4 VH
# VL: B4 VL
# notes: Hybridoma monoclonal; also called antibody 2; clone 2
# Biological target: T1, human chemokine (C-C motif) receptor 8 (CCR8) (human, UniProt P51685 1-355)
# T1 sequence (P51685 whole entry): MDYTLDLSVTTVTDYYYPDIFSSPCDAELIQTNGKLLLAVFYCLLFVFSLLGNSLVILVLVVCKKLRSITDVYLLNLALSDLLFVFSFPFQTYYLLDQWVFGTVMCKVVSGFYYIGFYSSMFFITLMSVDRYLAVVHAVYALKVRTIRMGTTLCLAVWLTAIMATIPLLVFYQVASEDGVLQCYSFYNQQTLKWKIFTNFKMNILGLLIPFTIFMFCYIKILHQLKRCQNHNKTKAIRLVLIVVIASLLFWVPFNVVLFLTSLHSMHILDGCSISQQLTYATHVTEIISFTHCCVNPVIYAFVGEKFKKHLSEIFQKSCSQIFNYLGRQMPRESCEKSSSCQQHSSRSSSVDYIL
# Assay: cell-based or functional assay
row,Binder,% hCCR8-Ba/F3 - THP-1 complexes [%]
1,B1,0.97
2,B2,0.47
3,B3,1.56
4,B4,0.6
5,B5,0.74
6,B6,0.43
7,B7,0.48

# Biological target: T1, human chemokine (C-C motif) receptor 8 …
# Assay: flow cytometry blocking, PBMC CCR8+ CD4+ cells; competitor PE-AB1 (its MFI is read)
# Procedure: (§1) For blocking studies, 100 μL of the cell suspension were incubated with 10 μg purified isotype control, AB1, AB2, AB3, AB4, AB5, AB8, AB9, AB10, AB11, AB12, AB13, AB14, AB15, and Commercial ABI antibodies, or isotype control, as blocking agents.
# (§2) After incubation with the blocking agent, the cells were incubated with 0.25 μg of the indicated PE-conjugated antibody plus anti-human CD4 APC or anti-human CD3 for another 15 minutes in the dark and then washed 2 times with Cell Staining Buffer, and acquired in a FACSCanto II flow cytometer (BD Biosciences); the data was analyzed using FCS Express (De Novo Software); MFI correspond to the CCR8+ CD4+ lymphocytes or CCR8+ CD3+ lymphocytes.
# (§3) Percentage original MFI was calculated by dividing the MFI of samples blocked with AB1, AB2, AB3, AB4, AB5, AB6, AB7, AB8, AB9, AB10, AB11, AB12, AB13, AB14, AB15, and Commercial ABI antibodies, by the MFI of samples blocked with the corresponding isotype control. This value was subtracted from 100 to get a blocking percentage. The formula is shown below: […]
Binder,% Blocking [%],MFI
B1,-39.8,916
B2,-61.8,1060
B3,-45.4,953
B4,28.8,467
B5,36.5,416
B6,100,0
B7,13.5,567

# Biological target: T1, human chemokine (C-C motif) receptor 8 …
# Assay: flow cytometry blocking, PBMC CCR8+ CD4+ cells; competitor PE-AB2 (its MFI is read)
# Procedure: as §1, §2, §3
Binder,% Blocking [%],MFI
B1,-32.6,888
B2,-45.2,972
B3,-46.8,983
B4,46.8,356
B5,37,422
B6,45.8,363
B7,26.7,491

# Biological target: T1, human chemokine (C-C motif) receptor 8 …
# Assay: flow cytometry blocking, PBMC CCR8+ CD4+ cells; competitor PE-AB3 (its MFI is read)
# Procedure: as §1, §2, §3
Binder,% Blocking [%],MFI
B1,-23.3,855
B2,-38.4,961
B3,-27.5,885
B4,48.3,359
B5,100,0
B6,48.2,359
B7,42.4,399

# Biological target: T1, human chemokine (C-C motif) receptor 8 …
# Assay: flow cytometry blocking, PBMC CCR8+ CD4+ cells; competitor PE-AB4 (its MFI is read)
# Procedure: as §1, §2, §3
Binder,% Blocking [%],MFI
B1,-39.4,951
B2,-41.9,969
B3,-54.7,1060
B4,100,0
B5,34.6,446
B6,-61.4,1100
B7,16.2,572

# Biological target: T1, human chemokine (C-C motif) receptor 8 …
# Assay: flow cytometry blocking, PBMC CCR8+ CD4+ cells; competitor PE-AB5 (its MFI is read)
# Procedure: as §1, §2, §3
Binder,% Blocking [%],MFI
B1,-29.2,969
B2,-32.8,995
B3,-36.2,1020
B4,25.7,557
B5,38.8,459
B6,45.1,411
B7,36.7,475

# Biological target: T1, human chemokine (C-C motif) receptor 8 …
# Assay: flow cytometry blocking, PBMC CCR8+ CD4+ cells; competitor PE-AB6 (its MFI is read)
# Procedure: as §1, §2, §3
Binder,% Blocking [%],MFI
B1,-23.3,966
B2,-26.3,990
B3,-24.1,973
B4,40.2,469
B5,45.5,427
B6,47.3,413
B7,45.9,424

# Biological target: T1, human chemokine (C-C motif) receptor 8 …
# Assay: flow cytometry blocking, PBMC CCR8+ CD4+ cells; competitor PE-AB10 (its MFI is read)
# Procedure: as §1, §2, §3
Binder,% Blocking [%],MFI
B1,28.6,720
B2,-32.5,1340
B3,5.71,950
B4,0.2,1010
B5,-1.1,1020
B6,-12.2,1130
B7,-8.07,1090

# Biological target: T1, human chemokine (C-C motif) receptor 8 …
# Assay: flow cytometry blocking, PBMC CCR8+ CD4+ cells; competitor PE-AB11 (its MFI is read)
# Procedure: as §1, §2, §3
Binder,% Blocking [%],MFI
B1,44.4,501
B2,39.5,545
B3,23.6,689
B4,-4.76,944
B5,-4.37,941
B6,-13.3,1020
B7,-7.68,971

# Biological target: T1, human chemokine (C-C motif) receptor 8 …
# Assay: flow cytometry blocking, PBMC CCR8+ CD4+ cells; competitor PE-AB12 (its MFI is read)
# Procedure: as §1, §2, §3
Binder,% Blocking [%],MFI
B1,43.3,553
B2,-21.6,1190
B3,-5.38,1030
B4,-6.83,1040
B5,-7.35,1050
B6,-4.04,1020
B7,-9.94,1070

# Biological target: T1, human chemokine (C-C motif) receptor 8 …
# Assay: flow cytometry blocking, PBMC CCR8+ CD4+ cells; competitor PE-AB13 (its MFI is read)
# Procedure: as §1, §2, §3
Binder,% Blocking [%],MFI
B1,38.4,577
B2,2.16,916
B3,14.2,803
B4,1.62,921
B5,7.12,870
B6,-3.67,971
B7,8.25,859

# Biological target: T1, human chemokine (C-C motif) receptor 8 …
# Assay: flow cytometry blocking, PBMC CCR8+ CD4+ cells; competitor PE-AB14 (its MFI is read)
# Procedure: as §1, §2, §3
Binder,% Blocking [%],MFI
B1,-237,2980
B2,27.5,642
B3,100,0
B4,6.44,829
B5,-2.68,910
B6,0.97,878
B7,2.39,865

# Biological target: T1, human chemokine (C-C motif) receptor 8 …
# Assay: flow cytometry blocking, PBMC CCR8+ CD4+ cells; competitor PE-AB15 (its MFI is read)
# Procedure: as §1, §2, §3
Binder,% Blocking [%],MFI
B1,-218,2520
B2,-0.06,793
B3,7.39,734
B4,1.66,780
B5,-10.2,874
B6,-7.83,855
B7,-7.83,855

# Biological target: T1, human chemokine (C-C motif) receptor 8 …
# Assay: flow cytometry blocking, PBMC CCR8+ CD4+ cells; competitor PE-ABII (its MFI is read)
# Procedure: as §1, §2, §3
Binder,% Blocking [%],MFI
B1,9.26,1000
B2,15,942
B3,22.9,854
B4,2.87,1080
B5,3.05,1070
B6,-7.57,1190
B7,0.77,1100

# — US20240360228A1 (BIOLEGEND, published 2024)
